From article PMC12262184, “Structural insights into transcriptional regulation by the helicase RECQL5” (Nature Structural & Molecular Biology, 2025)

Target: RPB1 subunit of human RNA polymerase II (human (endogenous in HeLa), UniProt P24928 1-1970)
Assay: cryo-EM structure; EC_(REC-Apo): Pol II on anti-RPB1-protein G resin incubated with tenfold excess of nucleic acid scaffold, then tenfold excess of RECQL5_(1–620)-D157A, no nucleotide; eluted with RPB1 triheptapeptide repeat; crosslinked with 0.02% glutaraldehyde; graphene oxide grids
Settings: both partners purified

binding result: binds
B1: RECQL5_(1–620)-D157A (domain or fragment)
chain: MSSHHTTFPFDPERRVRSTLKKVFGFDSFKTPLQESATMAVVKGNKDVFVCMPTGAGKSLCYQLPALLAKGITIVVSPLIALIQDQVDHLLTLKVRVSSLNSKLSAQERKELLADLEREKPQTKILYITPEMAASSSFQPTLNSLVSRHLLSYLVVAEAHCVSQWGHDFRPDYLRLGALRSRLGHAPCVALTATATPQVQEDVFAALHLKKPVAIFKTPCFRANLFYDVQFKELISDPYGNLKDFCLKALGQEADKGLSGCGIVYCRTREACEQLAIELSCRGVNAKAYHAGLKASERTLVQNDWMEEKVPVIVATISFGMGVDKANVRFVAHWNIAKSMAGYYQESGRAGRDGKPSWCRLYYSRNDRDQVSFLIRKEVAKLQEKRGNKASDKATIMAFDALVTFCEELGCRHAAIAKYFGDALPACAKGCDHCQNPTAVRRRLEALERSSSWSKTCIGPSQGNGFDPELYEGGRKGYGDFSRYDEGSGGSGDEGRDEAHKREWNLFYQKQMQLRKGKDPKIEEFVPPDENCPLKEASSRRIPRLTVKAREHCLRLLEEALSSNRQSTRTADEADLRAKAVELEHETFRNAKVANLYKASVLKKVADIHRASKDGQPYDM
notes: RECQL5 helicase, human, residues 1-620 (helicase D1 and D2 subdomains, RQC domain, IRI module with αN helix and KIX domain); lacks the unstructured region and the SRI domain; The purification is described for GST-tagged RECQL5_(1–620) in general; Used without nucleotide in EC_(REC-Apo); also called truncated RECQL5 construct; source: E. coli BL21-CodonPlus (DE3)-RIL, purified (glutathione …)
